# Results from doi:10.1101/2024.12.06.627168.
# B1: PTDSS2 RNA oligo (ssRNA)
# RNA: GUGCAUGGGCAUGUGUGCUGUGUGUGUGCAGGCGACCGUAAACA
# Legend:
# MYC 304-354 WT (RBRIII) = MYC 304-354 WT (RBRIII) (UniProt P01106-1 304-354); assay: fluorescence anisotropy
# MYC 304-354 RBRIIIMUT = MYC 304-354 RBRIIIMUT (UniProt P01106-1 304-354, R316A;K317A;R331A;R334A;R340A;K341A); assay: fluorescence anisotropy
# Sequence of MYC 304-354 WT (RBRIII) (P01106 319-369): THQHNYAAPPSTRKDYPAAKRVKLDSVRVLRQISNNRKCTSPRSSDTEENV
binder,measurement,setting,value
B1,binding result,MYC 304-354 WT (RBRIII),binds
same,binding result,MYC 304-354 RBRIIIMUT,no binding
